Data taken from publication PMC6765138 (Nucleic Acids Research, 2019).

Tests used:
[1] = biological target: the molecule itself; test: crystal structure
[2] = biological target: the molecule itself; test: SEC

Protein	stoichiometry N [1]	stoichiometry N [2]
Se-Met-MtPrpR_(81–486) (selenomethionine-derived MtPrpR_(81–486)) (domain or fragment, selenomethionine incorporated in place of methionine, also called Se-PrpR_(81–486); not shown: His6, N-terminal, kept) DARLVADLSDVFTDIGVEHAVSGAQIEEFVARMPEVGHSLVAVHRRLRAATEELEGYRSRATAETELPPARPMPFEEVRDFFYDRNNYIHDLDMAAERMFTESGMRTGGLDIQLAELMRDRFGISVVIDDNLPDTAKRRYHPDTKVLRVAHWLMPGQRAFQIATQLALVGQSDLISSIVATDDQLSTEARGVARIGLANYFAGAFLLPYREFHRAAEQLRYDIDLLGRRFGVGFETVCHRLSTLQRPRQRGIPFIFVRTDKAGNISKRQSATAFHFSRVGGSCPLWVVHDAFAQPERIVRQVAQMPDGRSYFWVAKTTAADGLGYLGPHKNFAVGLGCDLAHAHKLVYSTGVVLDDPSTEVPIGAGCKICNRTSCAQRAFPYLGGRVAVDENAGSSLPYSSTEQSV	4	
MtPrpR_(81–486)_F155H variant (domain or fragment, also called MtPrpR_(81–486)_F155H mutant; MtRamB-like mutant of MtPrpR; not shown: His6, N-terminal, kept) DARLVADLSDVFTDIGVEHAVSGAQIEEFVARMPEVGHSLVAVHRRLRAATEELEGYRSRATAETELPPARPMPHEEVRDFFYDRNNYIHDLDMAAERMFTESGMRTGGLDIQLAELMRDRFGISVVIDDNLPDTAKRRYHPDTKVLRVAHWLMPGQRAFQIATQLALVGQSDLISSIVATDDQLSTEARGVARIGLANYFAGAFLLPYREFHRAAEQLRYDIDLLGRRFGVGFETVCHRLSTLQRPRQRGIPFIFVRTDKAGNISKRQSATAFHFSRVGGSCPLWVVHDAFAQPERIVRQVAQMPDGRSYFWVAKTTAADGLGYLGPHKNFAVGLGCDLAHAHKLVYSTGVVLDDPSTEVPIGAGCKICNRTSCAQRAFPYLGGRVAVDENAGSSLPYSSTEQSV		4
